In PMC3201864:

Tests used:
CELF1 T187 (RRM1-RRM2) [1] = target: T1, CELF1 T187 (RRM1-RRM2) (Xenopus, UniProt O57406 1-187); assay: NMR titration
CELF1 T187 (RRM1-RRM2) [2] = target: T1, CELF1 T187 (RRM1-RRM2); assay: gel filtration
CELF1 RRM1 [3] = target: T2, CELF1 RRM1 (Xenopus, UniProt O57406 1-101); assay: ESI-MS
CELF1 RRM1 [4] = target: T2, CELF1 RRM1; assay: gel filtration
CELF1 RRM1 [5] = target: T2, CELF1 RRM1; assay: NMR titration
CELF1 RRM2 = CELF1 RRM2 (Xenopus, UniProt O57406 108-187); assay: gel filtration
CELF1 T187 (RRM1-RRM2) [6] = target: T1, CELF1 T187 (RRM1-RRM2); assay: gel filtration; remark: listed apart in the source
CELF1 RRM1 [7] = target: T2, CELF1 RRM1; assay: gel filtration; remark: listed apart in the source
CELF1 T187 (RRM1-RRM2) [8] = target: T1, CELF1 T187 (RRM1-RRM2); assay: EMSA
CELF1 T187 (RRM1-RRM2) [9] = target: T1, CELF1 T187 (RRM1-RRM2); assay: gel filtration; remark: listed apart in the source
CELF1 T187 (RRM1-RRM2) [10] = target: T1, CELF1 T187 (RRM1-RRM2); assay: EMSA; remark: listed apart in the source
CELF1 T187 (RRM1-RRM2) [11] = target: T1, CELF1 T187 (RRM1-RRM2); assay: ESI-MS
CELF1 T187 (RRM1-RRM2) [12] = target: T1, CELF1 T187 (RRM1-RRM2); assay: gel filtration; remark: listed apart in the source
CELF1 T187 (RRM1-RRM2) [13] = target: T1, CELF1 T187 (RRM1-RRM2); assay: ITC

T1 sequence (O57406 1-187): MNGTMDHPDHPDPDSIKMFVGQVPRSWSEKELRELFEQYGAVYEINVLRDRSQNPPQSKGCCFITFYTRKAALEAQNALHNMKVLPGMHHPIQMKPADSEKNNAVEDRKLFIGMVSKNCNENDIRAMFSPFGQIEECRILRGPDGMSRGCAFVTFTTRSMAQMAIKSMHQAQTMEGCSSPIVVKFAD
T2 sequence (O57406 1-101): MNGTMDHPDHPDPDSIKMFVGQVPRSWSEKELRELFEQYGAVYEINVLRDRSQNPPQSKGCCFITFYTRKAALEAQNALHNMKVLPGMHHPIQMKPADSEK
Chain of CELF1 RRM2 (O57406 108-187): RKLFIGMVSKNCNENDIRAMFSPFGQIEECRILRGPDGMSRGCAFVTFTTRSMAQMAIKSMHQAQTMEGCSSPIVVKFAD

UGUUUUUGU (ssRNA) [EDEN3U (x=3)]: binds (CELF1 T187 (RRM1-RRM2) [1]).

CUGCUGCUGCUGCUG (ssRNA) [CUG15]: binds (CELF1 T187 (RRM1-RRM2) [2]).

UUGUUUGUU (ssRNA) [EDEN9]: binds (CELF1 RRM1 [3]).

UGUUUAU (ssRNA) [EDEN7m]: binds (CELF1 RRM1 [4]).

CUGCUG (ssRNA) [CUG2]: binds (CELF1 RRM1 [5]).

UAUUUAU (ssRNA) [ARE7]: no binding (CELF1 RRM2); no binding (CELF1 T187 (RRM1-RRM2) [6]); no binding (CELF1 RRM1 [7]).

UGUCUGUCUGUCUGU (ssRNA) [GUCU15]: binds (CELF1 T187 (RRM1-RRM2) [8]).

UGUGUGUGUGUGUGU (ssRNA) [UG15 (GU15 in text)]: binds (CELF1 T187 (RRM1-RRM2) [9]).

UAUUUAUUUAUUUAU (ssRNA) [ARE15]: no binding (CELF1 T187 (RRM1-RRM2) [10]).

UGUUUGUUUGU (ssRNA) [EDEN11 (GRE)]: binds (CELF1 T187 (RRM1-RRM2) [11]).

UGUUUGUUUGUUUGU (ssRNA) [EDEN15]: binds (CELF1 T187 (RRM1-RRM2) [12]).

In the case of UGU (ssRNA), the Kd (CELF1 T187 (RRM1-RRM2) [13]) is reported as 64 ± 2 µM.
